The values that follow come from patent US7670806B2, “ADP-ribosyl acceptor hydrolase 3 (ARH3) polypeptides and methods of use” (The United States of America as represented by the …, priority 2005, dated 2010).

Values joined by “and” are separate entries in the source; they are usually repeats but may differ in a detail not shown here. Identical values can stand only once.

The test system of one data set is NIH3T3 cells. In words: Effect of H2O2 on ARH3-transfected NIH3T3 cells (Cell-Counting Kit-8). The data set is classed as cell-based. As to conditions: stably ARH3 cDNA-transfected NIH3T3 cells vs empty vector; H2O2 for 24 hours. On the procedure: FIG. 16 is a line graph showing the effect of H2O2 on ARH3-transfected NIH3T3 cells. NIH3T3 cells were transfected with ARH3 cDNA using Lipofectamin transfection reagent (INVITROGEN™). After transfection, the cells were cultured and exposed to 200 μg/ml of Hygromycin G (INVITROGEN™) for 3-4 weeks to select stably transfected clones. Positive clones derived from single Hygromycin G-resistant cells were then isolated by cloning rings and further grown under the same conditions. As controls, NIH3T3 cells were transfected with an empty pcDNA3.1 vector (INVITROGEN™) and subjected to the same selection and cloning procedures as described above. The cells were plated in 96-well plates at 1×10^4 cells/well, and incubated for 24 h at 37° C. in a humidified incubator. The cells were then challenged at the indicated concentrations of H2O2 for 24 hours. Cell survival was determined by using Cell-Counting Kit-8 (Dojindo). The experiments were repeated twice with similar results.
To test the role of ARH3 in the cellular response to oxidative stress, NIH3T3 cells were transfected with ARH3 cDNA using Lipofectamin transfection reagent (Invitrogen). […]
The cells were plated in 96-well plates at 1×10^4 cells/well, and incubated for 24 hours at 37° C. in a humidified incubator. […] Cell viability was determined by using Cell-Counting Kit-8 (Dojindo). […]

Data set [1] in a line: Hydrolysis of O-acetyl-[14C]ADP-ribose by ARH proteins / PARG (RP-HPLC). Format: biochemical. Here is the method: FIG. 13A is a graph illustrating the results from incubation of 1.5 pmol of mouse ARH3 with or without 5 mM DTT and/or 10 mM MgCl2 as described in FIG. 11B with incubation for 1 h at 30° C. FIG. 13B is a graph illustrating the results from incubation of 1.5 pmol of wild type or mutant human (D77-78) ARH3 or 20 mU of PARG for 2 h at 30° C. *D77,78, assays incubated with 15 pmol of mutant human ARH3 (D77, D78).
FIG. 14A is a graph of the results from incubation with the indicated amount of mouse ARH1, 2, or 3 for 2 h at 30° C. FIG. 14B is a graph of the results from incubation with 230 pmol of mouse ARH1 at 30° C. for the indicated time.
Mouse ARH3 (2 pmol) and 2.5 μM O-acetyl-[^14C]ADP-ribose (5,000 cpm) in 200 μl of buffer containing 50 mM potassium phosphate (pH 7.0), 10 mM MgCl2 and 5 mM DTT were incubated for 2 h at 30° C., before separation of substrate and products using RP-HPLC as described below.
Hydrolysis of O-acetyl-[^14C]ADP-ribose catalyzed by ARH3. Assays containing the indicated concentration of O-acetyl-[^14C]-ADP-ribose (0.1 to 2 nmol, 1,000 to 20,000 cpm) and 1.5 pmol of ARH3 in 200 μl of buffer (50 mM KPO4 (pH 7.0), 10 mM MgCl2, 5 mM DTT) were incubated at 30° C. for 20 min. Substrate and products were separated using RP-HPLC. Amounts of product were corrected for ADP-ribose produced in the absence of ARH3 before calculation of hydrolysis rates.
Because O-acetyl-ADP-ribose was known to be hydrolyzed at alkaline pH Tanny and Moazed (2001), Proc Natl Acad Sci USA. 98(2):415-20, Epub Dec. 26, 2000), it was generated at pH 7.0 in the presence of [^14C-adenine] β-NAD, Sir2, and acetylated histone H3 peptide (FIG. 11A), and the products of Sir2 and ARH3 were analyzed using reverse-phase HPLC at the same pH (FIGS. 11A,B). The products of the ARH3-catalyzed reaction were also analyzed by high resolution-polyacrylamide gel electrophoresis (FIG. 11C). O-acetyl-[^14C]ADP-ribose hydrolase activity was time and ARH3 dependent (FIG. 12) and essentially completely dependent on Mg^2+ (FIG. 13A).
O-acetyl-ADP-ribose hydrolysis by ARH1 was time and ARH1 dependent (FIG. 14b).

B1: ARH3: 39-kDa recombinant protein having both poly(ADP-ribose) glycohydrolase activity and O-acetyl-ADP-ribose hydrolase activity (protein, listed as Homo sapiens)
chain: MAAAAMAAAAGGGAGAARSLSRFRGCLAGALLGDCVGSFYEAHDTVDLTSVLRHVQSLEPDPGTPGSERTEALYYTDDTAMARALVQSLLAKEAFDEVDMAHRFAQEYKKDPDRGYGAGVVTVFKKLLNPKCRDVFEPARAQFNGKGSYGNGGAMRVAGISLAYSSVQDVQKFARLSAQLTHASSLGYNGAILQALAVHLALQGESSSEHFLKQLLGHMEDLEGDAQSVLDARELGMEERPYSSRLKKIGELLDQASVTREEVVSELGNGIAAFESVPTAIYCFLRCMEPDPEIPSAFNSLQRTLIYSISLGGDTDTIATMAGAIAGAYYGMDQVPESWQQSCEGYEETDILAQSLHRVFQKS
By Km is commonly meant the concentration of substrate that gives half-maximal velocity. Take B1: the “Cell viability after H2O2 challenge” value in the data set on NIH3T3 cells is “significantly reduced the toxic effect of H2O2”. Besides, the Km in data set [1] (1.5 pmol ARH3, 30° C., 20 min, pH 7.0, 10 mM MgCl2, 5 mM DTT) was 7.4 ± 0.7 µM. Besides, in data set [1] (1.5 pmol ARH3, 30° C., 20 min, pH 7.0, 10 mM MgCl2, 5 mM DTT, means ±½ range of duplicates), the “Vmax, O-acetyl-ADP-ribose hydrolysis” value was found to be 173 ± 8.4 nmol/min/mg. The “kcat, O-acetyl-ADP-ribose hydrolysis” value in data set [1] (comparison with mNudT5) came out at 0.0052 ± 0.0033 s⁻¹. For the same molecule, the “Rate of O-acetyl-ADP-ribose hydrolysis relative to that of ARH1” value in data set [1] (times / -fold the rate with ARH1, recombinant mouse proteins, 2 h at 30° C.) was 250 and > 250.
